Results as given in article PMC5737520 (Nucleic Acids Research, 2017).

T1: uS13c, chloroplast ribosomal protein S13 (spinach (Spinacia oleracea) (endogenous …, UniProt P82163 48-172))
T1 sequence (looked up): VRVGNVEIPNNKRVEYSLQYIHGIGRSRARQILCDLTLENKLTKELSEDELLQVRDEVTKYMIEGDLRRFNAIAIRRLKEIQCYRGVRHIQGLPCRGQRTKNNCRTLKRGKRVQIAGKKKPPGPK

T2: bS1c, chloroplast ribosomal protein S1 (spinach (Spinacia oleracea) (endogenous …, UniProt P29344 42-411))
T2 sequence (looked up): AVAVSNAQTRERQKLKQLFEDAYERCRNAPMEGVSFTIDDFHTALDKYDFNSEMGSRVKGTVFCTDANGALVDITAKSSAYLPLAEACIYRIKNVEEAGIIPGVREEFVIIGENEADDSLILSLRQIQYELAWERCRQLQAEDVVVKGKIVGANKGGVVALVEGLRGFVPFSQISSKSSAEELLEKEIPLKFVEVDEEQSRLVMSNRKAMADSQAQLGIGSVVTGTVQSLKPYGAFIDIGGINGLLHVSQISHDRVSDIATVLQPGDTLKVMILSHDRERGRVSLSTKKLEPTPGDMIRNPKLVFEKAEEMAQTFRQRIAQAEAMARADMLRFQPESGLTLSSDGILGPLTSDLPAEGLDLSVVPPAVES

B1: uS2c, chloroplast ribosomal protein S2 (natural protein, UniProt P08242 1-236, looked up)
chain: MTRRYWNINLEEMMEAGVHFGHGTRKWNPRMSPYISAKCKGIHIINLTRTARFLSEACDLVFDASSRGKQFLIVGTKNKAADSVARAAIRARCHYVNKKWLGGMLTNWSTTETRLHKFRDLRMEQTAGRLARLPKRDAAVVKRQLSHLQTYLGGIKYMTGLPDIVIIVDQQEEYTALRECITLGIPTICLIDTNCNPDLADISIPANDDAIASIRLILTKLVFAICEGRSSYIRNP

Tests used:
[1] = target: T1, uS13c, chloroplast ribosomal protein S13; test: cryo-EM structure
[2] = target: T2, bS1c, chloroplast ribosomal protein S1; test: cryo-EM structure

Row | Binder | binding result [1] | binding result [2]
1 | GRGDRKTAKGKRFNHSFGNARPKNKNKGRGPPKAPIFPKGDPSQKED (natural protein, UniProt P47910 55-101, looked up) [bTHXc (PSRP4), plastid-specific ribosomal protein of the chloroplast ribosome small subunit] | binds | 
2 | B1 |  | binds
